Results: US20060286611A1, “Antibodies against biotinylated histones and related proteins and assays related thereto” (Board of Regents of University of Nebraska, priority 2005, published 2006)
Entries after “also recorded” stand apart in the source; their conditions may differ.

Biological target: T1, biotinidase (Homo sapiens, UniProt P43251)
T1 construct: 60 μL of human plasma; from tissue; host or cells: human plasma
T1 sequence (P43251 22-523): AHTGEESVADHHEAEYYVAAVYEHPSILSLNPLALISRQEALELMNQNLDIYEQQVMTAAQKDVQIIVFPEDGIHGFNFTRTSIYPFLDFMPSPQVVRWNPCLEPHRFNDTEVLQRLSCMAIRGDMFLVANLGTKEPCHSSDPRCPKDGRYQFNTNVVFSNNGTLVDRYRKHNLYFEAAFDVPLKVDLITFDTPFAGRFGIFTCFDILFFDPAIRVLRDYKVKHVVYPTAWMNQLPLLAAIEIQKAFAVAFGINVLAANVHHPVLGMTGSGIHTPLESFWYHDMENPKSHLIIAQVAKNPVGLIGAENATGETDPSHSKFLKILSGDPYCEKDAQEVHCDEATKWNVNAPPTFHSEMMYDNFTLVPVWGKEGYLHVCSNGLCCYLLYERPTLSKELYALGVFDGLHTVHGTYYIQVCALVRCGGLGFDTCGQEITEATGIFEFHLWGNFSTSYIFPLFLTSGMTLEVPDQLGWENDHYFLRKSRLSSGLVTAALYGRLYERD
Experiment: Enzymatic biotinylation of synthetic histone H2A and H2A.X peptides by biotinidase
Assay type: biochemical
Details: human plasma as source of biotinidase, 75 μmol/L biocytin, pH 8.0, 37° C., up to 45 minutes
Excerpt: In Examples described above, the inventors developed a procedure to identify amino acid residues in histones that are targets for biotinylation. […] Amino acid substitutions (e.g., lysine-to-alanine substitutions) in synthetic peptides are used to corroborate identification of biotinylation sites. In addition, amino acid modifications (e.g., acetylation of lysines) in peptides can be used to investigate the cross-talk between biotinylation of histones and other known modifications of histones.
Peptides from both the N- and C-terminal regions of histone H2A and H2A.X were included in the analysis of biotinylation sites. […] Reactions were quenched by adding an equal volume of Tricine gel loading buffer (Invitrogen, Carlsbad, Calif.).

Substance | enzymatic biotinylation by biotinidase, peptide-bound biotin probed with streptavidin peroxidase
AKAKSRSSR [Peptide T16S12-20, N-terminus of histone H2A.X, amino acids 12-20] | good targets for biotinylation; also recorded: biotinylated only moderately
AKAKTRSSR [Peptide N12-20, histone H2A amino acids 12-20] | not a good target; also recorded: poor target for biotinylation
ATVGPKAPSG [Peptide C122-131, C-terminus of histone H2A.X, amino acids 122-131] | not biotinylated
GGKARAKA [Peptide N7-14, histone H2A amino acids 7-14] | good target for biotinylation; also recorded: heavily biotinylated; also recorded: moderate target for biotinylation
GKKATQASQEY [Peptide C132-142, C-terminus of histone H2A.X, amino acids 132-142] | not biotinylated
K5,9A1-9: histone H2A N1-9, both lysine residues substituted with alanines (SGRGAQGGA) | no biotinylation was detectable
K5A1-9: histone H2A N1-9, K5 substituted with alanine (SGRGAQGGK) [Peptide K5A1-9] | did not decrease biotinylation
K13,15A12-20: histone H2A N12-20, both lysine residues substituted with alanine (AAAATRSSR) | no biotinylation was detectable
K13,15A,T16S12-20: T16S12-20 with both lysine residues substituted with alanine (AAAASRSSR) | no biotinylation was detectable
K13A12-20: histone H2A N12-20, K13 substituted with alanine (AAAKTRSSR) [Peptide K13A12-20] | did not render K15 a good target
K13A,T16S12-20: T16S12-20 with K13 substituted with alanine (AAAKSRSSR) | No biotinylation was detectable
K15A12-20: histone H2A N12-20, K15 substituted with alanine (AKAATRSSR) [Peptide K15A12-20] | good target for biotinylation
K15A,T16S12-20: T16S12-20 with K15 substituted with alanine (AKAASRSSR) | decreased moderately
K125,127,129A122-129: C122-129 with all lysine residues substituted with alanine (SHHAAAGA) | no biotinylation was detectable
K125,127A122-129: C122-129 with K125 and K127 substituted with alanine (SHHAAAGK) | decreased only moderately
K125,129A122-129: C122-129 with K125 and K129 substituted with alanine (SHHAAKGA) | considerable decrease of biotinylation
K127,129A122-129: C122-129 with K127 and K129 substituted with alanine (SHHAAAGA) | considerable decrease of biotinylation
Q6T,K5A1-9: Q6T1-9 with K5 substituted with alanine (SGRGATGGK) | decreased biotinylation only moderately
Q6T,K9A1-9: Q6T1-9 with K9 substituted with alanine (SGRGKTGGA) | substantially decreased biotinylation
